# Data published in PMC10613254 (2023).
# Target: bovine brain Arp2/3 complex (bovine, UniProt P61157 1-418; A7MB62 1-394; Q58CQ2 1-372; Q3MHR7 1-300; Q3T035 1-178; Q148J6 …)
# Test: ITC
row,Kd,Binder
1,5.4 µM,MWKASAGHAVSITQDDGGADDWETDPDFVNDVS (domain or fragment) [Cort_(1-33)]
2,4.5 µM,"Cort_(1-76), cortactin N-terminal acidic domain (NTA, residues 1-76) (domain or fragment) MWKASAGHAVSITQDDGGADDWETDPDFVNDVSEKEQRWGAKTVQGSGHQEHINIHKLRENVFQEHQTLKEKELET"
3,2.2 µM,Cort_(18-76) (domain or fragment) GADDWETDPDFVNDVSEKEQRWGAKTVQGSGHQEHINIHKLRENVFQEHQTLKEKELET
